Two substances from patent US20250382598A1 can be followed below.

Where “and” joins values, the source holds several entries; their conditions need not be identical. Equal entries are not always repeated.

For assay [1], the target named is LbCas12a-scTrex2 fusion (single-chained Trex2 homodimer at the C-terminus; construct 27433) (Simian virus 40; Lachnospiraceae bacterium ND2006; Mus musculus). As to the kind of experiment: cell-based or functional assay.
The target in assay [2] is LbCas12a-Trex2 fusion (C-terminal Trex2; construct 25962) (Simian virus 40; Lachnospiraceae bacterium ND2006; Mus musculus). As to the kind of experiment: cell-based or functional assay.

“LbCas12a-scTrex2 fusion (single-chained Trex2 homodimer at the C-terminus; construct 27433) (enzyme)”: in assay [1], the 1 kb Inversion (targeted fragment inversion in transgenic maize plants) was 1 plants and 2%; the targeted inversion frequency among the 13 plants in which both targets were edited turned out to be 7.7%.

“LbCas12a-Trex2 fusion (C-terminal Trex2; construct 25962) (enzyme)”: the 1 kb Inversion (targeted fragment inversion in transgenic maize plants) in assay [2] was 28 plants and 18.4%.
